Assay results: publication PMC6587167

Columns and labels:
[1] = dual luciferase Sox2 reporter; settings: glycan lost; control: untreated / control siRNA / scrambled control
[2] = western blot, S2VP10 and L3.6PL; settings: glycan lost; control: untreated cells
[3] = cycloheximide chase, western blot, endogenous Sox2; settings: glycan lost; control: untreated / scrambled control S2VP10
western blot, MIA-PACA2 = settings: glycan lost; control: wild-type Sox2 overexpression

## SOX2: OSMI
[1]
  other: transcriptional activity: decreases
[2]
  expression_or_secretion: decreases
[3]
  degradation_or_half_life: decreases

## SOX2: S246A
Western blot, MIA-PACA2
  expression_or_secretion: decreases

## SOX2: siOGT
[1]
  other: transcriptional activity: decreases
